The series addresses T1, LldR (Escherichia coli K-12 W3110 type-A) (UniProt P0ACL7).
T1 sequence: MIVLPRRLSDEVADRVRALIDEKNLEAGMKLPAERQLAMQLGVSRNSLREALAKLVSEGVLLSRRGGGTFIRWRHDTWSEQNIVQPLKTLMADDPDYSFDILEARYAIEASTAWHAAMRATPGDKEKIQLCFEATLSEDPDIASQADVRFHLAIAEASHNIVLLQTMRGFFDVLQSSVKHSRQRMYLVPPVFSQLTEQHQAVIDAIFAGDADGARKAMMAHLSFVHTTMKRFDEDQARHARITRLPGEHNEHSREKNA
The experiment in a line: EMSA. Particulars: EMSA: binding buffer (composition given for gSELEX: 10 mM Tris-HCl pH 7.8 at 4 °C, 3 mM Mg acetate, 150 mM NaCl, 1.25 mg/ml BSA), 37 °C 30 min, then effector ….

On to “GATTTTCAACCAGATATGATCATGGTTACGCCATCTTATTGCCTTAACCTGATTGAAGAGCTGGAGCGGCAGTTGGGCGGTGATGCCAGCGGTTGCTCGCTGCGGGTTGGAGTATTTGGTGCTGAGCCGTGGACACAGGCCATGCGTAAAGAGATTGAGCGTCGCCTGGGGATCACCGCACTGGATATTTATGGCCTGTCAGAAGTGATGGGGCCGGGGGTGGCGATGGAGTGTCTGGAAACTACCGACGGCCCAACCATTTGGGAAGATCATTTCTATCCTGAAATTGTTA (double strand) [paaX promoter probe]”, for which the binding entry is “no binding”. The same measure for “TCCCGGACCTCGTGCACAGGTAGGACCAATTTTTCTGTTCTTAACTCGCAAAACACGCACATCACGTAAGTGATTATGTTACATCAATTTAACATTGAGTTAACCAAGACAAGGTCACAGAGCTGGAAAAAAAATGGTCTGACCGGTAGCTAAAGAGATAGACGAAAACGAAAAGCCCGCTTAATAACTGTTCACAGAAGCAGCGCGCAAAAATCAGCTGCCACACAACACAACAAAGCGAAGCCTACTCATGAGCATCTTGTACGAAGAGCGTCTT (double strand) [glcD/glcC probe]”: “binds”.
